In paper PMC9241078:

Legend:
Assay in all cases: potentiometry
Cterm120 = conditions: 298 K; 0.1 M KCl; none (peptide dissolved in 4 x 10^-3 M HCl); metal-free peptide. Ligand concentration is 0.5 mM in Methods, but the Table 3 footnote says 0.001 M.
Glu117 = conditions: 298 K, 0.1 M KCl, none (peptide dissolved in 4 x 10^-3 M HCl)
[1] = biological target: Cterm135 (UniProt position 135, AGEDAI-----); conditions: 298 K; 0.1 M KCl; none (peptide dissolved in 4 x 10^-3 M HCl); metal-free peptide. Ligand concentration is 0.5 mM in Methods, but the Table 3 footnote says 0.001 M.
[2] = biological target: Glu132 (UniProt position 132, …--); conditions: 298 K; 0.1 M KCl; none (peptide dissolved in 4 x 10^-3 M HCl); metal-free peptide. Ligand concentration is 0.5 mM in Methods, but the Table 3 footnote says 0.001 M.
[3] = metal-free peptide. Ligand concentration is 0.5 mM in Methods, but the Table 3 footnote says 0.001 M.

Protein | pKa (Cterm120) | pKa (Glu117; [3]) | pKa (Glu117; Ni(II)-bound, metal to ligand 1:1 (NiH4L to NiH3L step)) | pKa [1] | pKa [2]
DHHLAHIVVDAIAHASEDRR | 3.23 | 5.80 |  |  | 
DAHLAHIVVDAIAHASEDRR [BigR4 alpha5 domain peptide mutant H102A (L2) (Mycobacterium smegmatis; H102A)] | 3.35 | 6.10 | 5.61 |  | 
DHHLAAIVVDAIAHASEDRR [BigR4 alpha5 domain peptide mutant H106A (L3) (Mycobacterium smegmatis; H106A)] | 2,97 | 5,91 |  |  | 
DHHLAHIVLDAVAHAGEDAI |  |  |  | 3.16 | 5.74
